Experiment [1] deals with GDF-8 receptor (cell surface binding proteins on L6 and G-8 myoblasts). As to the kind of experiment: receptor-ligand binding assay with I-125 GDF-8 on myoblasts.
Experiment [2] has the same target. Nature of the experiment: receptor-ligand binding assay with I-125 GDF-8 on L6 myoblasts.
The target in experiment [3] is T1, mature C-terminal myostatin peptide (disulfide-linked C-terminal dimer), purified from CHO cell conditioned … (UniProt O14793 24-375, limits assumed, radio-iodinated (on tyrosine, residues not stated) in the receptor binding assay).
T1 construct: mature; also called GDF-8; mature C-terminal peptide
T1 sequence (looked up): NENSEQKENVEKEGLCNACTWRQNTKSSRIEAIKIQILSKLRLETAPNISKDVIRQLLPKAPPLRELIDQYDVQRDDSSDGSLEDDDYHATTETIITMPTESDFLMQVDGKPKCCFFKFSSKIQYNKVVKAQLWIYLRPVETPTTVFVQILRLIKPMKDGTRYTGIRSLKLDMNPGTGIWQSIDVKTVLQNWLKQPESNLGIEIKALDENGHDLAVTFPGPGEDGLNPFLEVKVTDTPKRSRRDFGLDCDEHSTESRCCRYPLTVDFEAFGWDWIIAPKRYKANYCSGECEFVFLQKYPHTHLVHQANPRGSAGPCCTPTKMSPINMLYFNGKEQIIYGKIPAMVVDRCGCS
Nature of the experiment: radio-iodinated myostatin on COS cells transfected with Act RIIB, Scatchard analysis.

For orientation: Kd means a measure of binding affinity in units of concentration. A high value points to weaker binding.

Molecule “recombinant human GDF-8 (rhGDF-8) homodimer (from UniProt O14793 267-374) (ligand)” yielded a Kd in experiment [1] of 0.37 nM. In experiment [2], this molecule yielded a receptors/cell (receptors/cell) of 5000.

B1: activin type IIB receptor (Act RIIB) expressed on transfected COS cells (receptor)
chain: SGRGEAETRECIYYNANWELERTNQSGLERCEGEQDKRLHCYASWRNSSGTIELVKKGCWLDDFNCYDRQECVATEENPQVYFCCCEGNFCNERFTHLPEAGGPEVTYEPPPTAPTLLTVLAYSLLPIGGLSLIVLLAFWMYRHRKPPYGHVDIHEDPGPPPPSPLVGLKPLQLLEIKARGRFGCVWKAQLMNDFVAVKIFPLQDKQSWQSEREIFSTPGMKHENLLQFIAAEKRGSNLEVELWLITAFHDKGSLTDYLKGNIITWNELCHVAETMSRGLSYLHEDVPWCRGEGHKPSIAHRDFKSKNVLLKSDLTAVLADFGLAVRFEPGKPPGDTHGQVGTRRYMAPEVLEGAINFQRDAFLRIDMYAMGLVLWELVSRCKAADGPVDEYMLPFEEEIGQHPSLEELQEVVVHKKMRPTIKDHWLKHPGLAQLCVTIEECWDHDAEARLSAGCVEERVSLIRRSVNGTTSDCLVSLVTSVTNVDLPPKESSI
Regarding B1, the Kd in experiment [3] was approximately 5 nM.

For the origin of these results see patent US20110239317A1 (Johns Hopkins, published 2011).
